We go through 13 molecules from patent US9133271 (AbbVie / Abbott, dated 2015).

For test [1], the target named is T1, human DLL3 on cells (h293-hDLL3 cells; endogenous DLL3 on NTX tumor cells) (human, UniProt Q9NYJ7 27-618).
T1 sequence: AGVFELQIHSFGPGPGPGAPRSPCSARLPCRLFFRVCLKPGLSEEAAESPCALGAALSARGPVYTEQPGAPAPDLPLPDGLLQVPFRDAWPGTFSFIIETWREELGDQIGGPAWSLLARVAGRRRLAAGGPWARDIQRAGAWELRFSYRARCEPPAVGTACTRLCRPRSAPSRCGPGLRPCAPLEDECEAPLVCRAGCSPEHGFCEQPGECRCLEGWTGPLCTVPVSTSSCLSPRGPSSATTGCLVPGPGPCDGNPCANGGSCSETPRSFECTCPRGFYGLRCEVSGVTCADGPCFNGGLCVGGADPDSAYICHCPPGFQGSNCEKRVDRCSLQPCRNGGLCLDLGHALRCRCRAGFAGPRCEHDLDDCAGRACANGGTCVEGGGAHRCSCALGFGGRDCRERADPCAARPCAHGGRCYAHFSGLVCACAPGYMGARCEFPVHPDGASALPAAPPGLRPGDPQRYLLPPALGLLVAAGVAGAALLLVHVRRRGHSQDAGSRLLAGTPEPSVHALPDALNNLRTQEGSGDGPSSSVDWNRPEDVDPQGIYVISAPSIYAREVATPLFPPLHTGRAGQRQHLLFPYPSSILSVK
Kind of test: cell-based or functional assay.

Test [2] addresses T1, human DLL3 on cells (h293-hDLL3 cells; …). The test can be described thus: cell-based or functional assay. The source holds these as a separate data set.
In test [3] the target is T2, murine DLL3 on 293 cells (h293-mDLL3) (murine, UniProt O88516 33-584).
T2 sequence: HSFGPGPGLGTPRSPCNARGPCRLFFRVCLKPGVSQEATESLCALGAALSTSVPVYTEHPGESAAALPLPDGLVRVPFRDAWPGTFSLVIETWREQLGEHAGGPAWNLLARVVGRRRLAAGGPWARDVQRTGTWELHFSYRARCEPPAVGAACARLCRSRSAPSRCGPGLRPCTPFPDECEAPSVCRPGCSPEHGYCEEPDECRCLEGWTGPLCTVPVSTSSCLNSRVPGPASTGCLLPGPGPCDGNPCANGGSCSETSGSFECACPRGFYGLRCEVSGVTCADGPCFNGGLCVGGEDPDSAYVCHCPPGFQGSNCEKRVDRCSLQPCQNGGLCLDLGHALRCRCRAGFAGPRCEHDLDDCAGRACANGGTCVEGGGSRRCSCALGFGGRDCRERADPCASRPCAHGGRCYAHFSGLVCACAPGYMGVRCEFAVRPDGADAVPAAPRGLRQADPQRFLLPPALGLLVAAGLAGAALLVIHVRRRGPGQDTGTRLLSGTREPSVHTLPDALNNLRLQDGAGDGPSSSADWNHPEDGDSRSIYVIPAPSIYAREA
Kind of test: assay and form of the mouse antigen not given on the sheet; table of properties of humanized constructs.

Test [4] has as its target T2, murine DLL3 on 293 cells (h293-mDLL3). The test can be described thus: flow cytometry on 293 cells over-expressing murine DLL3. In general terms: A flow cytometer gives signals particle by particle.

B1: SC16.15 (antibody, V domains shown)
VH: QVQLQQSGAELAKPGASVKMSCKASGYTFTRYWIHWIKQRPGQGLEWIGYINPTTVYTEFNQNFKDKATLTADKSSTTASMQLSSLTSEDSAVYYCARGGSNFFDYWGQGTTLTVSS
VL: DIQMTQSPASLAASVGETVAITCRASENIYYNLAWYQQKQGKSPQLLIYTANSLEDGVPSRFSGSGSGTQYSLKINSMQPEDSATYFCKQAYDVPPTFGGGTKLEIK
In the case of B1, the “EC50 of killing of OV26 NTX tumor cells with anti-mouse IgG Fab-saporin” value in test [1] was determined as 0.14 pM. Further, in test [2], the “% Live Cells (in vitro), KDY66 cells, antibody plus anti-mouse IgG Fab-saporin” value (shortened to “% Live Cells (in vitro), KDY66 cells”) amounted to 24%.

B2: SC16.10 (antibody, V domains shown)
VH: QVTLKESGPGILQSSQTLSLTCSFSGFSLSTSGMGVGWIRQPSGKGLEWLAHIWWDDVKRYNPVLKSRLTISKDTSSSQVFLKIASVDTADTATYYCARLVDDLYYFDYWGQGTTLTVSS
VL: QIVLTQSPAIMSASLGERVTMTCTASSSVSSSYLHWYQQKPGSSPKLWIYSTSNLASGVPTRFSGSGSGTSYSLTISSMEAEDAATYYCHQYHRSPFTFGSGTKLEIK
In the case of B2, the “% Live Cells (in vitro), KDY66 cells” value in test [2] turned out to be 18%.

B3: SC16.34 (antibody, V domains shown)
VH: QIQLVQSGPELKRPGETVKISCKASGYTFTNYGMNWVKQAPGKGLKWMGWINTYTGDPTYADDFKGRFAFSLETSASTAYLQINNLKNEDTATYFCARIGGNSPSDYWGQGTSLTVSS
VL: SIVMTQTPKFLLVSAGDRVTITCKASQSVSNDVAWYQQKPGQSPKLLIYYASNRYSGVPDRFTGSGYGTDFTFTISTVQAEDLAVYFCQQDYSSPWTFGGGTKLEIK
As to B3, in test [1], the “EC50 of killing of OV26 NTX tumor cells with anti-mouse IgG Fab-saporin” value was determined as 5.7 pM. For the same molecule, the “% Live Cells (in vitro), KDY66 cells” value in test [2] came out at 12%.

B4: SC16.56 (antibody, V domains shown)
VH: QIQLVQSGPELKKPGETVKISCKASGYTFTNYGMNWVKQAPGKGLKWMAWINTYTGEPTYADDFKGRFAFSLETSASTASLQIINLKNEDTATYFCARIGDSSPSDYWGQGTTLTVSS
VL: SIVMTQTPKFLLVSAGDRVTITCKASQSVSNDVVWYQQKPGQSPKLLIYYASNRYTGVPDRFAGSGYGTDFSFTISTVQAEDLAVYFCQQDYTSPWTFGGGTKLEIR
With B4, the “% Live Cells (in vitro), KDY66 cells” value in test [2] was 16%.

B5: hSC16.25 (antibody, V domains shown)
VL: EIVLTQSPDFQSVTPKEKVTITCSASSSVSYMHWYQQKPDQSPKLLIKDSSKLASGVPSRFSGSGSGTDFTLTINSLEAEDAATYYCQQWSSNPLTFGQGTKLEIK
V domain: QITLKESGPTLVKPTQTLTLTCTFSGFSLSTSGMGVGWIRQPPGKALEWLTDIWWDDNKYYNPSLKSRLTITKDTSKNQVVLTMTNMDPVDTATYYCARRVNYYYDPYYAMDYWGQGTTLVTVS
notes: CDR-grafted humanized antibody; also called humanized SC16.25
Regarding B5, the binding result in test [3] is given as “no binding”.

B6: SC16.4 (antibody, V domains shown)
VH: QIQLVQSGPELKKPGETVKISCKASGYTFTDYSMHWVKQAPGKGLKWMGWINTETGEPGYADDFKGRFAFSLETSASTAYLQINNLKNEDTATYFCARYDGYAMDYWGQGTSVTVSS
VL: DIQMTQTTSSLSASLGDRVTISCRASQDISNYLNWYQQKPDGTVKLLIYYTSRLHSGVPSRFSGSGSGTDYSLTISNLELEDIATYFCQQGDMLPWTFGGGTKLEIK
Turning to B6, the “% Live Cells (in vitro), KDY66 cells” value in test [2] is 49%.

B7: SC16.39 (antibody, V domains shown)
VH: EVKLEESGGGLVQFGGSMKLSCAASGFTFSDAWMDWVRQSPEKGLEWVAEIRNKANNHATYYPESVKGRFTISRDDSKSRVYLQMNNLRAEDTGIYYCTGYSSFAYWGQGTLVTVSA
VL: DIQMTQTTSSLSASLGDRVTISCRASQDVINYLNWYQQKPDGTVKLLIYYTSRLHSGVPSRFSGSGSRTDYSLTISNLEPEDIATYYCQQYSERPYTFGGGTKLEIK
In the case of B7, the “% Live Cells (in vitro), KDY66 cells” value in test [2] was determined as 98%.

B8: SC16.25 (antibody, V domains shown)
VH: QVTLKESGPGILQPSQTLSLTCSFSGFSLSTSGMGVGWIRQPSGEGLEWLTDIWWDDNKYYNPSLKSRLTISKDTSSNQVFLNITSVDTADTATYYCARRVNYYYDPYYAMDYWGQGTSVTVSS
VL: QIVLTQSPAIMSASPGEKVTMTCSASSSVSYMHWYQQKSGTSPKRWIYDSSKLASGVPARFSGSGSGTSYSLTISSMEAEDAATYYCQQWSSNPLTFGAGTKLELK
Regarding B8, the “% Live Cells (in vitro), KDY66 cells” value in test [2] amounted to 28%.

B9: SC16.65 (antibody, V domains shown)
VH: QVTLKESGPGILQPSQTLSLTCSFSGFSLSTSGMGVGWIRQPSGKGLEWLALIWWDDVKRYNPALKSRLTISKDASSSQVFLKIASVDTADTATYYCARIASYDYDVVYAMDYWGQGTSVSVSS
VL: QIVLTQSPALMSASPGEKVTMTCSVTSSVSYMYWYQQKPRSSPKPWIYLTSNLASGVPARFSGSGSGTSYSLTISSVEAEDAATYYCQQWRNNPFTFGSGTKVEIK
For B9, the “% Live Cells (in vitro), KDY66 cells” value in test [2] was found to be 13%.

B10: SC16.13 (antibody, V domains shown)
VH: QVTLKESGPGILQPSQTLSLTCSFSGFSLSTSGMGVGWIRQPSGKGLEWLAHIWWDDVKRYNPALKSRLTISKDTSSSQVFLKIASVDTADTATYYCARIVSFDNDVVSAMDYWGQGTSVTVSS
VL: QIVLTQSPALVSASPGEKVTMTCSASSSVSYMYWYQQKPRSSPKPWIYLTSNLASGVPARFSGSGSGTSYSLTISSMEAEDAATYYCQQWRSNPFTFGSGTKLEIK
With B10, the “% Live Cells (in vitro), KDY66 cells” value in test [2] worked out at 31%.

B11: SC16.8 (antibody, V domains shown)
VH: QAQLQQSGAELVRPGTSVKVSCKASGYAFTNYLIEWVKQRPGQGLEWIGVINPGTGGTNYNENFKGKATLTADKSSSTAYMQLSSLTSDDSAVYFCARSPYDYHEGAMDYWGQGTSVTVSS
VL: EIQMTQSPSSMSASLGDRITITCQATQDIVKNLNWYQQKPGKPPSFLIYYAIELAEGVPSRFSGSGSGSDYSLTISNLESEDFADYYCLQFYEFPFTFGAGTKLELK
Regarding B11, the “% Live Cells (in vitro), KDY66 cells” value in test [2] is 82%.

B12: hSC16.13 (antibody, V domains shown)
VH: QITLKESGPTLVKPTQTLTLTCTFSGFSLSTSGMGVGWIRQPPGKALEWLAHIWWDDVKRYSPSLKSRLTITKDTSKNQVVLTMTNMDPVDTATYYCARIVSFDNDVVSAMDYWGQGTLVTVSS
VL: DIQMTQSPSSLSASVGDRVTITCSASSSVSYMYWYQQKPGKAPKLLIYLTSNLASGVPSRFSGSGSGTDFTLTISSLQPEDFATYYCQQWRSNPFTFGQGTKLEIKR
notes: CDR-grafted humanized antibody; also called humanized SC16.13
In the case of B12, the binding result in test [3] was “no binding”.

B13: SC16.67 (antibody, V domains shown)
VH: EVQLVETGGGLVQPKGSLKLSCAVSAFTFTTYAMNWVRQAPGKGLEWVARIRNKSNNYATYYADSVKDRFTISRDDSQSMLYLQMNNLKIEDTAMYYCVFYYDYVYWGQGTLVTVSA
VL: QAVVTQESALTTSPGETVTLTCRSSTGAVTTSNYANWIQEKPDHLFTGLIGGTNNRAPGVPARFSGSLIGDKAALTITGAQTEDEAIYFCGLWYSNHLVFGGGTKLTVL
notes: murine anti-DLL3 mAb
Turning to B13, the binding result in test [4] is “no binding”. Also, the “% Live Cells (in vitro), KDY66 cells” value in test [2] amounted to 37%.
